Tests used:
[1] = target: YFPn-SpvC (Salmonella enterica subsp. enterica serovar Typhimurium strain 14028s) (UniProt P0A2M9); assay: split reporter (BiFC, NanoBiT); BiFC with YFPn and YFPc fusions co-expressed in Arabidopsis epidermal cells by particle bombardment together with p35S-mCherry; fluorescence observed 24-48 h after transformation by confocal microscopy; YFP-positive cells counted among mCherry-positive cells
[2] = target: YFPc-SpvC (Salmonella enterica subsp. enterica serovar Typhimurium strain 14028s) (UniProt P0A2M9); assay: as above

YFPc-MPK6 (from UniProt Q39026 1-395) (transformed cells)
percent of transformed cells with reconstituted YFP [1]: 34%

YFPn-MPK6 (from UniProt Q39026 1-395)
percent of transformed cells with reconstituted YFP [2]: 18%

— PMC4201148
